# Reference: article PMC2361298, “Securin (hPTTG1) expression is regulated by β-catenin/TCF in human colorectal carcinoma”
# B1: securin-TBE (wt) (dsDNA)
# DNA 1: ATAAATCACTATCAAAGGATAGAATTT
# DNA 2: AAATTCTATCCTTTGATAGTGATTTAT
# B2: securin-mutTBE (mt) (dsDNA)
# DNA 1: ATAAATCACTGCCAAAGGATAGAATTT
# DNA 2: AAATTCTATCCTTTGGCAGTGATTTAT
# Target: GST-TCF-4 DBD (UniProt Q9NQB0 265-496)
# Experiment: EMSA; EMSA, 0.5 ug GST-TCF-4 DBD or GST; buffer, salt, pH and temperature not stated (as in Hlubek et al 2004)
# Conditions: protein: recombinant; tags: GST; label: end label (probe); blunt
# GST-TCF-4 DBD, sequence (Q9NQB0 265-496): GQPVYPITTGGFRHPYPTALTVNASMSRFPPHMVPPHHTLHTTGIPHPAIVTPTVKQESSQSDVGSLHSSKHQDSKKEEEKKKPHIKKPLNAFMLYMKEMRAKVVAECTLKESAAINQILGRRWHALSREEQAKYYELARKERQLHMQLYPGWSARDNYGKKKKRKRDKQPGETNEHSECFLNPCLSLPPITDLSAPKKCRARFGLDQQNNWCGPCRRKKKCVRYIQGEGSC
row,Binder,binding result
1,B1,binds
2,B2,no binding
